In this data set the target is His6-GanR (Bacillus subtilis 3610) (UniProt O07008). Briefly: EMSA. Conditions: 10 mM Tris-HCl (pH not stated), 50 mM NaCl, 1 mM EDTA, 5% glycerol, 1 mM DTT, 10 ug/ml BSA, on ice 20 min; Cy3 probes with poly-dIdC, gel 0.5X TBE at 4 C. A general note: In EMSA bound probe runs differently from free probe, usually more slowly.
Chain of His6-GanR (Bacillus subtilis 3610) (O07008 whole entry): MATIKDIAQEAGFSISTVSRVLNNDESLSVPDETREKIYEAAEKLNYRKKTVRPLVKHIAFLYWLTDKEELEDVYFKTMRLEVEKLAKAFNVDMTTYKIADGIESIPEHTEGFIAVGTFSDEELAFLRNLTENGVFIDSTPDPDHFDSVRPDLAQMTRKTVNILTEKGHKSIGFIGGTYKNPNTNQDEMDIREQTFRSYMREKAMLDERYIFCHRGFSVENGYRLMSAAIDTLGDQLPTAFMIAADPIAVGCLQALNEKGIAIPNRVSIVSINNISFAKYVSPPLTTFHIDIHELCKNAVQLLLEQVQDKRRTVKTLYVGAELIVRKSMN

With “GTACGAATTCCCGCGCTGTATTCCGGCTTGAGAACAGCTTTTGAAAAGTAAGCTGTTTGGGAAAGTTAAATAATCTTTAATTCGAGATGTTTTACTTGAAAGTAAATTTCTTTGTCTCTATAATAAAGTCTAAGAGAGACAGAATAATCATTATGCATCTGTATGATAATAATTGATGTGTGATGGATCCGTAC (double strand) [PyvaB (yvaB promoter)]”, the binding result was “no binding”.
